Test results from doi:10.1101/2024.08.06.606809.

Experiments:
Test in all cases: SPR
Protein G variant GD = target: Protein G variant GD
Protein G variant GF = target: Protein G variant GF
Protein G variant GLM = target: Protein G variant GLM
[1] = target: Protein G-Fc (Fc specific Protein-G variant)

Substance	Kd (Protein G variant GD)	Kd (Protein G variant GF)	Kd (Protein G variant GLM)	Kd [1]
Fab^H, wild-type human (Herceptin) Fab scaffold with a kappa light chain	6.4 nM	1.9 nM	8.9 nM	–
human Fc (Fc domain of IgG) (domain or fragment)	–	–	–	3.8 nM
